This note sets out measurements from patent US20200024352A1 (Eli Lilly, published 2020).

For test [1], the target named is T1, cell surface PD-L1 on MDA-MB231 cells (human, UniProt Q9NZQ7 19-290).
T1 construct: Endogenous PD-L1 of a PD-L1-positive human breast adenocarcinoma cell line; also called cell surface expressed human PD-L1
The experiment in a line: flow cytometry, Antibody B-biotin on MDA-MB231 cells, streptavidin-PE.

Test [2] addresses T2, human PD-L1-Fc fusion protein (human, UniProt Q9NZQ7 19-239).
T2 construct: also called human PD-L1-Fc (R&D Systems); biotinylated PD-L1-Fc fusion protein; not shown: Fc part
Kind of test: blocking ELISA, B7-1-Fc on plate as competitor, biotinylated PD-L1-Fc.

The target of test [3] is T2, human PD-L1-Fc fusion protein. Kind of test: SPR, Biacore, Antibody B immobilized, PD-L1-Fc as analyte, 37 C, 1:1 model.
In test [4] the target is T3, cynomolgus monkey PD-L1-Fc fusion protein (cynomolgus monkey, UniProt G7PSE7 19-238).
T3 construct: also called Cyno PD-L1; not shown: Fc part
Kind of test: SPR, Biacore, Antibody B immobilized, cyno PD-L1-Fc as analyte, 37 C, 1:1 model.

The target in test [5] is T2, human PD-L1-Fc fusion protein. Kind of test: blocking ELISA, PD-1-Fc on plate as competitor, biotinylated PD-L1-Fc.
The target is the same in test [6]. Kind of test: ELISA, plate-coated human PD-L1-Fc.
Test [7] addresses T4, human Tim-3-Fc (R&D Systems) (human, UniProt Q8TDQ0 22-130).
T4 construct: Bought reagent; Biotinylated in the phosphatidylserine assay, ruthenylated (sulfo-tag) in the galectin-9 assay, plain and plate-coated in the ELISA and the CEACAM1 assay; also called hTIM-3-Fc; hTIM-3-Fc Biotin; not shown: Fc part of the bought fusion protein
T4 sequence: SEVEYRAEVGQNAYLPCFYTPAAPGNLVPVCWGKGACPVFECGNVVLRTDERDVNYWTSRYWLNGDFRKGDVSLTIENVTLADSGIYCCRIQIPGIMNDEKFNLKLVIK
Kind of test: MSD blocking assay, galectin-9-biotin on streptavidin plate as competitor, ruthenylated Tim-3-Fc.

Test [8] has as its target T4, human Tim-3-Fc (R&D Systems). The experiment in a line: flow cytometry, block of hTIM-3-Fc Biotin binding to phosphatidylserine on camptothecin-treated DO11.10 cells.
The target in test [9] is T5, human Tim-3, full-length, on cells (human, UniProt Q8TDQ0 22-301).
T5 construct: whole, on cells; also called cell surface Tim-3
T5 sequence (looked up): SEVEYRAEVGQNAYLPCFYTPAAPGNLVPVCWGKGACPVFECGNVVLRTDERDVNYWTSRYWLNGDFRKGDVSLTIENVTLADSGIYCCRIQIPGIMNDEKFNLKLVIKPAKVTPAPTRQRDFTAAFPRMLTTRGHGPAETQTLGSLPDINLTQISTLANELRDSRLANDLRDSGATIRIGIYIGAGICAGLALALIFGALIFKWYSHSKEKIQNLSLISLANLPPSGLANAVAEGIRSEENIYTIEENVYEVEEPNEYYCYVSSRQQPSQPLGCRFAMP
Kind of test: flow cytometry, A488-labelled antibody on Tim-3 DO11.10 cells.

In test [10] the target is T6, human Tim-3-IgV-Fc single arm antigen (SAG) (human).
T6 construct: the SAG construct itself is not described further; also called Tim-3 SAG; not shown: Fc part of the antigen arm, any linker to it, and the second antigen-free Fc arm
Kind of test: SPR, Biacore T100, antibody captured on Human Fab Binder, Tim-3 SAG as analyte, 1:1 Langmuir with mass transport.

Test [11] deals with T4, human Tim-3-Fc (R&D Systems). Kind of test: ELISA, plate-coated human Tim-3-Fc.
Test [12] concerns the target T7, hTim-3-IgV-FLAG (human, UniProt Q8TDQ0 22-130, glycosylation at Asn99 (density seen in the crystal structure)).
T7 construct: Purified from 293HEK supernatant on anti-FLAG resin; also called hTim-3-FLAG; not shown: FLAG tag
T7 sequence: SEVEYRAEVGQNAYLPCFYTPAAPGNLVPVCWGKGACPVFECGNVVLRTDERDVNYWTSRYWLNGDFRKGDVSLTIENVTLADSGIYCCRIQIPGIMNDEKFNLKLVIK
Kind of test: SPR, Biacore T200, Fab captured, hTim-3-IgV-FLAG as analyte, 25 C, 1:1 binding.

T2 sequence (Q9NZQ7 19-239 limits assumed): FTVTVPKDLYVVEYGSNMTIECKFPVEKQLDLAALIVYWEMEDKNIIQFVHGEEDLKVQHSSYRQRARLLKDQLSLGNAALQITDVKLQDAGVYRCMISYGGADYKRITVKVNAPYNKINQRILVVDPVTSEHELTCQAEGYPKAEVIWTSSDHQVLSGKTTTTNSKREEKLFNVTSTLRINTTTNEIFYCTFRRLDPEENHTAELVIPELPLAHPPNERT
T3 sequence (G7PSE7 entry or part of it): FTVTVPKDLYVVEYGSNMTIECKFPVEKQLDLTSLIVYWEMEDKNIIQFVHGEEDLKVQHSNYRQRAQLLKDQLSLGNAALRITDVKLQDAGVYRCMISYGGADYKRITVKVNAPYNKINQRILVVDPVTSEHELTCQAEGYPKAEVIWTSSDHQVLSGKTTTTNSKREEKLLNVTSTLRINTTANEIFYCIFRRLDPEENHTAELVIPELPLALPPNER
T1 sequence (Q9NZQ7 19-290 limits assumed): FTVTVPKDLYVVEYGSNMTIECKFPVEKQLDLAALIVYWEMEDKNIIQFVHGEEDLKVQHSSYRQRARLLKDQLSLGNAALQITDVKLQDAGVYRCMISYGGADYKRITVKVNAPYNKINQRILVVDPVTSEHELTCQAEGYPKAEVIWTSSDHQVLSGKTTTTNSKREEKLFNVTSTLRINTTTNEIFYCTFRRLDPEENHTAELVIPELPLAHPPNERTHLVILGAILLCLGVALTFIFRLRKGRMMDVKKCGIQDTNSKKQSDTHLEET

B1: Antibody B (Anti-PD-L1 Antibody) (antibody, human IgG1, lambda, V domains shown)
VH: QVQLVQSGAEVKKPGSSVKVSCKASGGTFSSYAISWVRQAPGQGLEWMGGIIPIFGTANYAQKFQGRVTITADKSTSTAYMELSSLRSEDTAVYYCARSPDYSPYYYYGMDVWGQGTTVTVSS
VL: QSVLTQPPSASGTPGQRVTISCSGSSSNIGSNTVNWYQQLPGTAPKLLIYGNSNRPSGVPDRFSGSKSGTSASLAISGLQSEDEADYYCQSYDSSLSGSVFGGGIKLTVLG
notes: Full IgG; also called Lilly PD-L1 antibody Antibody B; Antibody B-biotin
For B1, the EC50 in test [1] was determined as 0.14 nM; in [6], 0.11 nM. In addition, the IC50 is 2.4 nM in test [2] and 0.95 nM in test [5]. The dissociation constant Kd stood at 0.082 nM in test [3] and 0.122 nM in [4]. For the same molecule, the koff in test [3] is 0.000114 s⁻¹; in test [4], 0.000184 s⁻¹. Also, the on-rate constant (kon) in test [3] turned out to be 1.4e+06 M⁻¹ s⁻¹; in test [4], 1.51e+06 M⁻¹ s⁻¹.

B2: Antibody A (anti-Tim-3 Antibody) (antibody, human IgG1, kappa, V domains shown)
VH: EVQLLESGGGLVQPGGSLRLSCAASGFTFSSYYMSWVRQAPGKGLEWVSAISGSGGSTYYADSVKGRFTISRDNSKNTLYLQMNSLRAEDTAVYYCARYARTAFDLWGQGTLVTVSS
VL: DIVMTQSPSSLSASVGDGVTITCQASQDIYNYLNWYQQKPGKAPKLLIYAASSLQSGVPSRFSGSGSGTDFTLTISSLQPEDFATYYCQQANSFPPTFGQGTKLEIKR
notes: Full IgG; also called anti-human Tim-3 antibody
In the case of B2, in [7], the IC50 is 5.6 nM. Besides, the IC50 in test [8] was 0.32 nM. Also, the concentration giving a half-maximal response (EC50) in [9] came out at 0.09 nM. In test [10], this molecule returned a Kd of 0.398 nM, a koff of 0.000927 s⁻¹ and a kon of 2.33e+06 M⁻¹ s⁻¹. For the same molecule, in test [11], the response was half-maximal at 0.0207 nM (EC50).

B3: Antibody A-Fab (Fab, V domains shown)
VH: EVQLLESGGGLVQPGGSLRLSCAASGFTFSSYYMSWVRQAPGKGLEWVSAISGSGGSTYYADSVKGRFTISRDNSKNTLYLQMNSLRAEDTAVYYCARYARTAFDLWGQGTLVTVSS
VL: DIVMTQSPSSLSASVGDGVTITCQASQDIYNYLNWYQQKPGKAPKLLIYAASSLQSGVPSRFSGSGSGTDFTLTISSLQPEDFATYYCQQANSFPPTFGQGTKLEIKR
notes: Made by clipping Antibody A with immobilized papain; also called Fab for Antibody A
Take B3: in [12], binding was characterised by a dissociation constant (Kd) of 7.92 nM, the off-rate (koff) turned out to be 0.00286 s⁻¹ and the on-rate (kon) worked out at 362000 M⁻¹ s⁻¹.
